Reference: patent US20160208004A1 (published 2016)
Changes are numbered by the printed parent chain.

T1: IL-17RB.Fc (extracellular domain of human IL-17RB fused to the Fc region of human IgG) (human, UniProt Q9NRM6 18-292)
T1 construct: extracellular domain; also called HuIL-17RB: Fc; IL-17RB Fe; not shown: Fc region of human IgG1
T1 sequence (looked up): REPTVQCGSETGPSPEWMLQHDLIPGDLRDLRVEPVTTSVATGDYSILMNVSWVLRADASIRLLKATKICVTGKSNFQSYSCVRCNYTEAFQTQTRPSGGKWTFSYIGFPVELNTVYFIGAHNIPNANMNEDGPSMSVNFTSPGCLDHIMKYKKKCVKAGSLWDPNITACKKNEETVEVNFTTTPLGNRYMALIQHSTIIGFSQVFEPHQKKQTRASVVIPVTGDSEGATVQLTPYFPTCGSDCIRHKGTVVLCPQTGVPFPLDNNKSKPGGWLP

B1: 1.185.1 (antibody, V domains shown)
VH: QVQLVESGGGVVQPGRSLRLSCAASGINFSSYGMHWVRQAPGKGLEWVAVIWYDGSNKHYADSVKGRFTISRDNSKNTLYLQMNSLRAEDTAVYYCARDTGVYWGQGTLVTVSS
VL: not shown
B2: 2.67.1 (antibody, V domains shown)
VH: QVQLVQSGAEVKKPGASVKVSCKASGYTLTRYGISWVRQAPGQGLEWMGWISAYNGNTNYAQKLQGRVTMTTDTSTSTAYMELRSLRSDDTAVYYCARRDYDILTGYYNGFDPWGQGTLVTVSS
VL: DIQMTQSPSSLSASVGDRVTITCRASQGIRNDLGWYQQKPGKAPKRLIYAASSLQSGVPSRFSGSGSGTEFTLTISSLQPEDFATYYCLQHKSYPLTFGGGTKVEIK
B3: 2.46.1 (antibody, V domains shown)
VH: B2 VH with Y27N, L29F, R31G, K63N
VL: B2 VL
B4: 2.225.1 (antibody, V domains shown)
VH: B2 VH with A9V
VL: B2 VL
B5: 2.98.1 (antibody, V domains shown)
VH: B2 VH
VL: B2 VL
B6: 4.357.1 (antibody, V domains shown)
VH: QVQLVQSGAEVKKPGASVKVSCKASGYTLTSYGISWVRQAPGQGLEWMGWISTYKGNTNYAQKLQGRVTMTTDTSTSTAYMELRSLRSDDTAVYYCARKQLVFDYWGQGTLVTVSS
VL: EIVMTQSPATLSVSPGERATLSCRASQSISSSLAWYQQKPGQAPRLLIYGASTRATGIPARFSGSGSGTEFTLTISSLQSENFAVYYCQQYDNWPLTFGGGTKVEIK
B7: 4.393.1 (antibody, V domains shown)
VH: B6 VH with L29F, T53A, K55N, N59K, A79V
VL: B6 VL with S31T, A51T, N82D, Y87F, N93I
B8: 3.1545.1 (antibody, V domains shown)
VH: EVQLVESGGGSVQPGGSLRLSCAASGFTFSSYSMNWVRQAPGKGLEWVSIISSRSSIIHYADSVKGRFTISRDNAKNSLYLQMNSLRDEDTAVYYCARPKVGGGMDVWGQGTTVTVSS
VL: DIQMTQSPSSLSASVGDRVTITCRASQGISNYLAWYQQKPGKFPELLIYAASTLQSGVPSRFSGSGSGTDFTLTISSLQPEDVATYYCQKYNRAPFTFGPGTKVDIK
B9: Human IL-17RD.HIS (receptor, UniProt Q8NFM7 27-299, looked up)
chain: AGGSGRARGADTCGWRGVGPASRNSGLYNITFKYDNCTTYLNPVGKHVIADAQNITISQYACHDQVAVTILWSPGALGIEFLKGFRVILEELKSEGRQCQQLILKDPKQLNSSFKRTGMESQPFLNMKFETDYFVKVVPFPSIKNESNYHPFFFRTRACDLLLQPDNLACKPFWKPRNLNISQHGSDMQVSFDHAPHNFGFRFFYLHYKLKHEGPFKRKTCKQEQTTETTSCLLQNVSPGDYIIELVDDTNTTRKVMHYALKPVHSPWAGPIR
notes: R&D Systems product; not shown: HIS tag

Columns and labels:
human IL-17RA = human IL-17RA (human, UniProt Q96F46 33-866); experiment: cell-based or functional assay
[1] = biological target: T1, IL-17RB.Fc (extracellular domain of …); experiment: co-immunoprecipitation on Protein G beads, Western blot
[2] = biological target: T2, IL-17RA.Fc (extracellular domain of human IL-17RA fused to the Fc region of human IgG) (human, UniProt Q96F46 33-320); experiment: as above
T2 construct: extracellular domain; also called IL-17RA Fe; not shown: Fc region of human IgG1

Binder	% Inhib. of IL-5 production, TSLP treated human PBMC + IL-2 + IL-25, Expt. 1 (human IL-17RA)	% Inhib. of IL-5 production, TSLP treated human PBMC + IL-2 + IL-25, Expt. 2 (human IL-17RA)	% Inhib. of IL-5 production, TSLP treated human PBMC + IL-2 + IL-25, Expt. 3 (human IL-17RA)	binding result [1]	binding result [2]
B1	0%	41%	9%	–	–
B2	0%	13%	3%	–	–
B3	0%	6%	0%	–	–
B4	0%	–	0%	–	–
B5	0%	79%	0%	–	–
B6	0%	–	11%	–	–
B7	28%	72%	45%	–	–
B8	0%	43%	0%	–	–
B9	–	–	–	no binding (tested: 2 micrograms of each protein)	no binding (tested: 2 micrograms of each protein)
